How the values were obtained:
[1] = target: HKU1-A spike protein ectodomain (strain Caen1), trimeric, furin cleavage site mutated, with GCN4 trimerization motif (human coronavirus HKU1 (serotype A, strain Caen1)); assay: cryo-EM structure; apo: 4.3 µM HKU1 spike trimer without ligand, applied to grids at 4 °C; single-particle analysis, C3 symmetry imposed
[2] = target: HKU1-A spike protein ectodomain (strain Caen1), trimeric, furin cleavage site mutated, with GCN4 trimerization motif (human coronavirus HKU1 (serotype A, strain Caen1)); assay: cryo-EM structure; 3 µM wild-type or W89A spike trimer with 300 µM 9-O-acetylated disialoside, incubated at room temperature for about 10 min before vitrification; single-particle analysis
[3] = target: W89A mutant HKU1-A spike protein ectodomain (human coronavirus HKU1 (serotype A)); assay: as above

| Substance | stoichiometry N [1] | stoichiometry N [2] | stoichiometry N [3] |
| --- | --- | --- | --- |
| HKU1-A spike protein ectodomain (strain Caen1), trimeric, furin cleavage site mutated, with GCN4 trimerization motif (domain or fragment) | 3 | 3 |  |
| W89A mutant HKU1-A spike protein ectodomain (domain or fragment) |  |  | 3 |

From paper PMC10700143
